Test results published in publication PMC4923858.

Target: T1, TβRII-GFP, P37173
T1 chain: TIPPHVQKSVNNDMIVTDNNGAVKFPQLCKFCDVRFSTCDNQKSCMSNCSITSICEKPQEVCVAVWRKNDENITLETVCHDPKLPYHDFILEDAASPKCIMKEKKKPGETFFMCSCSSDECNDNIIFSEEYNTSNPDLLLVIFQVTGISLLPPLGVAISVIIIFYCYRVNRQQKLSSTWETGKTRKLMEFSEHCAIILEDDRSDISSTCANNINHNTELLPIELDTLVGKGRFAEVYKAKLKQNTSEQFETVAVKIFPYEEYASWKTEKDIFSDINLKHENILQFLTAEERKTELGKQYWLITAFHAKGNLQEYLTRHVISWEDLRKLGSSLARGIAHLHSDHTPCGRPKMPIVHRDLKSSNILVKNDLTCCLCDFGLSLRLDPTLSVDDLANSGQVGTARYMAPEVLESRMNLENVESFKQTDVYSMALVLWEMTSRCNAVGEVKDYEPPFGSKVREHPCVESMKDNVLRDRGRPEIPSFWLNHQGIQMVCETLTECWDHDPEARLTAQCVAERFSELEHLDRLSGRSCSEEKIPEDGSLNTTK
Experiment: single-molecule photobleaching step counting (TIRFM); TβRII-GFP on the membrane of fixed HeLa cells 4 h after transfection; after TGF-β1 10 ng/mL for 15 min at 37 °C; room temperature
Settings: remark: other sources report otherwise

B1: TβRII-GFP, P37173 23-567 (receptor)
chain: TIPPHVQKSVNNDMIVTDNNGAVKFPQLCKFCDVRFSTCDNQKSCMSNCSITSICEKPQEVCVAVWRKNDENITLETVCHDPKLPYHDFILEDAASPKCIMKEKKKPGETFFMCSCSSDECNDNIIFSEEYNTSNPDLLLVIFQVTGISLLPPLGVAISVIIIFYCYRVNRQQKLSSTWETGKTRKLMEFSEHCAIILEDDRSDISSTCANNINHNTELLPIELDTLVGKGRFAEVYKAKLKQNTSEQFETVAVKIFPYEEYASWKTEKDIFSDINLKHENILQFLTAEERKTELGKQYWLITAFHAKGNLQEYLTRHVISWEDLRKLGSSLARGIAHLHSDHTPCGRPKMPIVHRDLKSSNILVKNDLTCCLCDFGLSLRLDPTLSVDDLANSGQVGTARYMAPEVLESRMNLENVESFKQTDVYSMALVLWEMTSRCNAVGEVKDYEPPFGSKVREHPCVESMKDNVLRDRGRPEIPSFWLNHQGIQMVCETLTECWDHDPEARLTAQCVAERFSELEHLDRLSGRSCSEEKIPEDGSLNTTK
percent of spots bleaching in one step (monomers), after TGF-β1: 67.7% | percent of spots bleaching in three steps, after TGF-β1: 0.6% | percent of spots bleaching in two steps (dimers), after TGF-β1: 31.6%
